Here are results for six molecules from US20220204580A1 (AstraZeneca / MedImmune, published 2022).

Numbered stars: 1 amine (or outer) side, 2 acyl side, 3 side chain; on linkers, the order of the positions; unused ones are H or OH. Bridge positions count the residues as written; N and C are the ends. Square brackets hold non-standard residues; d marks the D form. Side chains are listed from the residue outwards. Ends that are not written are not given here. * marks the point of attachment. C18 diacid = O=C(O)CCCCCCCCCCCCCCCCC(=O)*; γGlu = O=C(O)[C@H](CCC(=O)[*:2])N[*:1]; Aib = CC(C)(N)C(=O)O

Experiment [1] has as its target T1, human calcitonin receptor (human, UniProt P30988 25-474).
T1 sequence (looked up): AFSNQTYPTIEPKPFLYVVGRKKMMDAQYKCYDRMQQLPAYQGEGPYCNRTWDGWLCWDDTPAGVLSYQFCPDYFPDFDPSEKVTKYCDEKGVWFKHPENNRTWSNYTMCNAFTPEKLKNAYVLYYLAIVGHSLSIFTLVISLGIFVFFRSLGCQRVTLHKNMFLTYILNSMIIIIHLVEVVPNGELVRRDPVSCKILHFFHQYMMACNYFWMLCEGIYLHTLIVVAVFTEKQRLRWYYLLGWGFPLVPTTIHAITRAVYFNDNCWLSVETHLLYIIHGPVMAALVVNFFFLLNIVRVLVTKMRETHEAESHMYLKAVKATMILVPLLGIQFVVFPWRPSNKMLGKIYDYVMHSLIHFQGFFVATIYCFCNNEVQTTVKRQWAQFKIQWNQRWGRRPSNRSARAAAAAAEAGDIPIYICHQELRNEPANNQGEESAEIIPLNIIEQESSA
Briefly: cell-based or functional assay.

Experiment [2] deals with T2, human amylin receptor (calcitonin receptor co-expressed with receptor activity modifying protein, RAMP3) (human, UniProt P30988 25-474; O60896 24-148).
T2 sequence (looked up) 1: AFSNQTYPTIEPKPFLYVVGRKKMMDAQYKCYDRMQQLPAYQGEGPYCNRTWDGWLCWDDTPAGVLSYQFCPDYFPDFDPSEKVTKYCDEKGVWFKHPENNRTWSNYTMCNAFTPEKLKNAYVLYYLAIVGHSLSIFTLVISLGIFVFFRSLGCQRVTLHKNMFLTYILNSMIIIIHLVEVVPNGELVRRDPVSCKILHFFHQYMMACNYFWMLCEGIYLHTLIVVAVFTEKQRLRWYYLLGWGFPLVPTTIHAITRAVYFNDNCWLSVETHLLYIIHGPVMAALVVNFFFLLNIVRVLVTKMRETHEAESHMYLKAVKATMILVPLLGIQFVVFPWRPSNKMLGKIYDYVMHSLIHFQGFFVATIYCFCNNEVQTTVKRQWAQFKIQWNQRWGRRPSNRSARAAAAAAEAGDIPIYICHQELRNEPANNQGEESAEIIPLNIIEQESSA
T2 sequence (looked up) 2: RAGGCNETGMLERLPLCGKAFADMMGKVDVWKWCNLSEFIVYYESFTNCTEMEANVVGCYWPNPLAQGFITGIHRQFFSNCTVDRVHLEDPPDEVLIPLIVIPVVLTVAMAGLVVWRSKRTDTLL
Briefly: cell-based or functional assay.

B1: Peptide 74 (SEQ ID NO: 74) (peptide)
peptide: K([γGlu-γGlu-C18 diacid])KCNTATCATQRLANFLVHSS[Aib]NFGPILPPTNVGSRTY-NH2
modifications: disulfide 3-8; N-terminus assumed
SMILES: CC[C@H](C)[C@H](NC(=O)[C@@H]1CCCN1C(=O)CNC(=O)[C@H](Cc1ccccc1)NC(=O)[C@H](CC(N)=O)NC(=O)C(C)(C)NC(=O)[C@H](CO)NC(=O)[C@H](CO)NC(=O)[C@H](Cc1c[nH]cn1)NC(=O)[C@@H](NC(=O)[C@H](CC(C)C)NC(=O)[C@H](Cc1ccccc1)NC(=O)[C@H](CC(N)=O)NC(=O)[C@H](C)NC(=O)[C@H](CC(C)C)NC(=O)[C@H](CCCNC(=N)N)NC(=O)[C@H](CCC(N)=O)NC(=O)[C@@H](NC(=O)[C@H](C)NC(=O)[C@@H]1CSSC[C@H](NC(=O)[C@H](CCCCN)NC(=O)[C@@H](N)CCCCNC(=O)CC[C@H](NC(=O)CC[C@H](NC(=O)CCCCCCCCCCCCCCCCC(=O)O)C(=O)O)C(=O)O)C(=O)N[C@@H](CC(N)=O)C(=O)N[C@@H]([C@@H](C)O)C(=O)N[C@@H](C)C(=O)N[C@@H]([C@@H](C)O)C(=O)N1)[C@@H](C)O)C(C)C)C(=O)N[C@@H](CC(C)C)C(=O)N1CCC[C@H]1C(=O)N1CCC[C@H]1C(=O)N[C@H](C(=O)N[C@@H](CC(N)=O)C(=O)N[C@H](C(=O)NCC(=O)N[C@@H](CO)C(=O)N[C@@H](CCCNC(=N)N)C(=O)N[C@H](C(=O)N[C@@H](Cc1ccc(O)cc1)C(N)=O)[C@@H](C)O)C(C)C)[C@@H](C)O
With B1, the “EC50 (cAMP production)” value in experiment [1] is 4.57 nM. Besides, in experiment [2], the “EC50 (cAMP production)” value was determined as 0.356 nM and the “Ratio (EC50 hCTR / EC50 hAMYR3)” value came out at 13.

B2: Peptide 77 (SEQ ID NO: 77) (peptide)
peptide: K([γGlu-γGlu-C18 diacid])CNTATCATQRLANFLRHSS[Aib]NFGPILPPTRVGSNTY-NH2
modifications: disulfide 2-7; N-terminus assumed
SMILES: CC[C@H](C)[C@H](NC(=O)[C@@H]1CCCN1C(=O)CNC(=O)[C@H](Cc1ccccc1)NC(=O)[C@H](CC(N)=O)NC(=O)C(C)(C)NC(=O)[C@H](CO)NC(=O)[C@H](CO)NC(=O)[C@H](Cc1c[nH]cn1)NC(=O)[C@H](CCCNC(=N)N)NC(=O)[C@H](CC(C)C)NC(=O)[C@H](Cc1ccccc1)NC(=O)[C@H](CC(N)=O)NC(=O)[C@H](C)NC(=O)[C@H](CC(C)C)NC(=O)[C@H](CCCNC(=N)N)NC(=O)[C@H](CCC(N)=O)NC(=O)[C@@H](NC(=O)[C@H](C)NC(=O)[C@@H]1CSSC[C@H](NC(=O)[C@@H](N)CCCCNC(=O)CC[C@H](NC(=O)CC[C@H](NC(=O)CCCCCCCCCCCCCCCCC(=O)O)C(=O)O)C(=O)O)C(=O)N[C@@H](CC(N)=O)C(=O)N[C@@H]([C@@H](C)O)C(=O)N[C@@H](C)C(=O)N[C@@H]([C@@H](C)O)C(=O)N1)[C@@H](C)O)C(=O)N[C@@H](CC(C)C)C(=O)N1CCC[C@H]1C(=O)N1CCC[C@H]1C(=O)N[C@H](C(=O)N[C@@H](CCCNC(=N)N)C(=O)N[C@H](C(=O)NCC(=O)N[C@@H](CO)C(=O)N[C@@H](CC(N)=O)C(=O)N[C@H](C(=O)N[C@@H](Cc1ccc(O)cc1)C(N)=O)[C@@H](C)O)C(C)C)[C@@H](C)O
Regarding B2, the “EC50 (cAMP production)” value in experiment [1] was found to be 2.52 nM; in experiment [2], 0.231 nM. For the same molecule, the “Ratio (EC50 hCTR / EC50 hAMYR3)” value in experiment [2] amounted to 11.

B3: Peptide 76 (SEQ ID NO: 76) (peptide)
peptide: K([γGlu-C18 diacid])CNTATCATQRLANFLRHSS[Aib]NFGPILPPTRVGSNTY-NH2
modifications: disulfide 2-7; N-terminus assumed
SMILES: CC[C@H](C)[C@H](NC(=O)[C@@H]1CCCN1C(=O)CNC(=O)[C@H](Cc1ccccc1)NC(=O)[C@H](CC(N)=O)NC(=O)C(C)(C)NC(=O)[C@H](CO)NC(=O)[C@H](CO)NC(=O)[C@H](Cc1c[nH]cn1)NC(=O)[C@H](CCCNC(=N)N)NC(=O)[C@H](CC(C)C)NC(=O)[C@H](Cc1ccccc1)NC(=O)[C@H](CC(N)=O)NC(=O)[C@H](C)NC(=O)[C@H](CC(C)C)NC(=O)[C@H](CCCNC(=N)N)NC(=O)[C@H](CCC(N)=O)NC(=O)[C@@H](NC(=O)[C@H](C)NC(=O)[C@@H]1CSSC[C@H](NC(=O)[C@@H](N)CCCCNC(=O)CC[C@H](NC(=O)CCCCCCCCCCCCCCCCC(=O)O)C(=O)O)C(=O)N[C@@H](CC(N)=O)C(=O)N[C@@H]([C@@H](C)O)C(=O)N[C@@H](C)C(=O)N[C@@H]([C@@H](C)O)C(=O)N1)[C@@H](C)O)C(=O)N[C@@H](CC(C)C)C(=O)N1CCC[C@H]1C(=O)N1CCC[C@H]1C(=O)N[C@H](C(=O)N[C@@H](CCCNC(=N)N)C(=O)N[C@H](C(=O)NCC(=O)N[C@@H](CO)C(=O)N[C@@H](CC(N)=O)C(=O)N[C@H](C(=O)N[C@@H](Cc1ccc(O)cc1)C(N)=O)[C@@H](C)O)C(C)C)[C@@H](C)O
As to B3, the “EC50 (cAMP production)” value turned out to be 22.3 nM in experiment [1] and 0.209 nM in experiment [2]. Further, the “Ratio (EC50 hCTR / EC50 hAMYR3)” value in experiment [2] is 107.

B4: Peptide 75 (SEQ ID NO: 75) (peptide)
peptide: K([γGlu-γGlu-C18 diacid])CNTATCATQRLANFLRHSS[Aib]NFGPILPPTNVGSNTY-NH2
modifications: disulfide 2-7; N-terminus assumed
SMILES: CC[C@H](C)[C@H](NC(=O)[C@@H]1CCCN1C(=O)CNC(=O)[C@H](Cc1ccccc1)NC(=O)[C@H](CC(N)=O)NC(=O)C(C)(C)NC(=O)[C@H](CO)NC(=O)[C@H](CO)NC(=O)[C@H](Cc1c[nH]cn1)NC(=O)[C@H](CCCNC(=N)N)NC(=O)[C@H](CC(C)C)NC(=O)[C@H](Cc1ccccc1)NC(=O)[C@H](CC(N)=O)NC(=O)[C@H](C)NC(=O)[C@H](CC(C)C)NC(=O)[C@H](CCCNC(=N)N)NC(=O)[C@H](CCC(N)=O)NC(=O)[C@@H](NC(=O)[C@H](C)NC(=O)[C@@H]1CSSC[C@H](NC(=O)[C@@H](N)CCCCNC(=O)CC[C@H](NC(=O)CC[C@H](NC(=O)CCCCCCCCCCCCCCCCC(=O)O)C(=O)O)C(=O)O)C(=O)N[C@@H](CC(N)=O)C(=O)N[C@@H]([C@@H](C)O)C(=O)N[C@@H](C)C(=O)N[C@@H]([C@@H](C)O)C(=O)N1)[C@@H](C)O)C(=O)N[C@@H](CC(C)C)C(=O)N1CCC[C@H]1C(=O)N1CCC[C@H]1C(=O)N[C@H](C(=O)N[C@@H](CC(N)=O)C(=O)N[C@H](C(=O)NCC(=O)N[C@@H](CO)C(=O)N[C@@H](CC(N)=O)C(=O)N[C@H](C(=O)N[C@@H](Cc1ccc(O)cc1)C(N)=O)[C@@H](C)O)C(C)C)[C@@H](C)O
As for B4, the entries for the “EC50 (cAMP production)” value in experiment [1] and in experiment [2] were 16 nM and 0.161 nM, respectively. In experiment [2], the “Ratio (EC50 hCTR / EC50 hAMYR3)” value is 99.

B5: Peptide 78 (SEQ ID NO: 78) (peptide)
peptide: K([γGlu-C18 diacid])KCNTATCATQRLANFLVHSS[Aib]NFGP[Aib]LPPTNVGSNTY-NH2
modifications: disulfide 3-8; N-terminus assumed
SMILES: CC(C)C[C@H](NC(=O)[C@H](CCCNC(=N)N)NC(=O)[C@H](CCC(N)=O)NC(=O)[C@@H](NC(=O)[C@H](C)NC(=O)[C@@H]1CSSC[C@H](NC(=O)[C@H](CCCCN)NC(=O)[C@@H](N)CCCCNC(=O)CC[C@H](NC(=O)CCCCCCCCCCCCCCCCC(=O)O)C(=O)O)C(=O)N[C@@H](CC(N)=O)C(=O)N[C@@H]([C@@H](C)O)C(=O)N[C@@H](C)C(=O)N[C@@H]([C@@H](C)O)C(=O)N1)[C@@H](C)O)C(=O)N[C@@H](C)C(=O)N[C@@H](CC(N)=O)C(=O)N[C@@H](Cc1ccccc1)C(=O)N[C@@H](CC(C)C)C(=O)N[C@H](C(=O)N[C@@H](Cc1c[nH]cn1)C(=O)N[C@@H](CO)C(=O)N[C@@H](CO)C(=O)NC(C)(C)C(=O)N[C@@H](CC(N)=O)C(=O)N[C@@H](Cc1ccccc1)C(=O)NCC(=O)N1CCC[C@H]1C(=O)NC(C)(C)C(=O)N[C@@H](CC(C)C)C(=O)N1CCC[C@H]1C(=O)N1CCC[C@H]1C(=O)N[C@H](C(=O)N[C@@H](CC(N)=O)C(=O)N[C@H](C(=O)NCC(=O)N[C@@H](CO)C(=O)N[C@@H](CC(N)=O)C(=O)N[C@H](C(=O)N[C@@H](Cc1ccc(O)cc1)C(N)=O)[C@@H](C)O)C(C)C)[C@@H](C)O)C(C)C
In the case of B5, in experiment [1], the “EC50 (cAMP production)” value was determined as 3.15 nM. Further, in experiment [2], the “EC50 (cAMP production)” value was 0.288 nM and the “Ratio (EC50 hCTR / EC50 hAMYR3)” value is 11.

B6: Peptide 79 (SEQ ID NO: 79) (peptide)
peptide: K([γGlu-C18 diacid])KCNTATCATQRLANFLVHSS[Aib]NFGPI[Aib]PPTNVGSNTY-NH2
modifications: disulfide 3-8; N-terminus assumed
SMILES: CC[C@H](C)[C@H](NC(=O)[C@@H]1CCCN1C(=O)CNC(=O)[C@H](Cc1ccccc1)NC(=O)[C@H](CC(N)=O)NC(=O)C(C)(C)NC(=O)[C@H](CO)NC(=O)[C@H](CO)NC(=O)[C@H](Cc1c[nH]cn1)NC(=O)[C@@H](NC(=O)[C@H](CC(C)C)NC(=O)[C@H](Cc1ccccc1)NC(=O)[C@H](CC(N)=O)NC(=O)[C@H](C)NC(=O)[C@H](CC(C)C)NC(=O)[C@H](CCCNC(=N)N)NC(=O)[C@H](CCC(N)=O)NC(=O)[C@@H](NC(=O)[C@H](C)NC(=O)[C@@H]1CSSC[C@H](NC(=O)[C@H](CCCCN)NC(=O)[C@@H](N)CCCCNC(=O)CC[C@H](NC(=O)CCCCCCCCCCCCCCCCC(=O)O)C(=O)O)C(=O)N[C@@H](CC(N)=O)C(=O)N[C@@H]([C@@H](C)O)C(=O)N[C@@H](C)C(=O)N[C@@H]([C@@H](C)O)C(=O)N1)[C@@H](C)O)C(C)C)C(=O)NC(C)(C)C(=O)N1CCC[C@H]1C(=O)N1CCC[C@H]1C(=O)N[C@H](C(=O)N[C@@H](CC(N)=O)C(=O)N[C@H](C(=O)NCC(=O)N[C@@H](CO)C(=O)N[C@@H](CC(N)=O)C(=O)N[C@H](C(=O)N[C@@H](Cc1ccc(O)cc1)C(N)=O)[C@@H](C)O)C(C)C)[C@@H](C)O
For B6, the “EC50 (cAMP production)” value is 4.8 nM in experiment [1] and 0.659 nM in experiment [2]. Besides, in experiment [2], the “Ratio (EC50 hCTR / EC50 hAMYR3)” value is 7.
